Publication PMC11398520 (bioRxiv, 2024)

B1: PS2 assembly domain (PS2^AD; residues 30 to 483) (domain or fragment)
chain: AQETNPTFNITNGFNDADGSTIQPVGPVNHTEETLRDLTDSTGAYLEEFQNGTVEEIVEAYLQVQASADGFDPSEQAAYEAFEAARVRASQELAASAETITKTRESVAYALKVDQEATAAFEAYRNALRDAAISINPDGSINPDTSINLLIDAANAANRTDRAEIEDYAHLYTQTDIALETPQLAYAFQDLKALQAEVDADFEWLGEFGIDQEDGNYVQRYHLPAVEALKAEVDARVAAIEPLRADSIAKNLEAQKSDVLVRQLFLERATAQRDTLRVVEAIFSTSARYVELYENVENVNVENKTLRQHYSALIPNLFIAAVANISELNAADAEAAAYYLHWDTDLATNDEDEAYYKAKLDFAIETYAKILFNGEVWQEPLAYVQNLDAGARQEAADREAARAADEAYRAEQLRIAQEAADAQKAIAEALAKEAEGNNDNSSDNTETGSSDIGS

Legend:
[1] = target: PS2 S-layer protein of Corynebacterium glutamicum (ex-vivo S-layer) (Corynebacterium glutamicum); experiment: cryo-EM structure
negative-stain EM = target: the molecule itself; experiment: negative-stain EM

Molecule	stoichiometry N [1]	binding result (negative-stain EM)
PS2 S-layer protein of Corynebacterium glutamicum (ex-vivo S-layer) (natural protein)	6	
B1		binds
